Results reported in patent US20240209080A1, “FOLR1 BINDING AGENTS, CONJUGATES THEREOF AND METHODS OF USING THE SAME” (PROFOUNDBIO US CO., priority 2021, published 2024).

Test system: Hela cells
Assay: Flow cytometry binding to Hela cells
Conditions: transfection supernatant, FIG. 1
Method: The binding activity of the antibodies to Hela cells (ATCC® CCL-2, provided by COBIOER) and to RPTEC/TERT1 cells (ATCC® CRL-4031, provided by COBIOER) was tested by flow cytometry using the transfection supernatants. Briefly, target cells were digested with 0.02% EDTA-2Na, centrifuged at 1500 rpm for 3 mins, and resuspended with PBS. After counting, the cells were added to a 1.5 ml centrifuge tube with 1×10^6 cells per tube, centrifuged at 1500 rpm for 5 minutes, and the supernatant was discarded. Then all the operations were carried out on an ice bath. 100 μL of transfection supernatant was added to each 1.5 ml centrifuge tube. Blank cells, blank cells plus secondary antibody, medium and HEK293 supernatant were set up as the controls. The reaction was performed on an ice bath for 1 hour. Then the cells were pelleted and washed twice with PBS. The secondary antibody, goat anti-Human IgG (PE, abcam, ab98596), was diluted (1:200) and added using 100 μL per tube. The reaction was performed on an ice bath for 1 hour in the dark. The cells were pelleted again and washed twice with PBS, resuspended in 300 μL PBS, and FL2 fluorescence readings were measured by cytometry. The results were analyzed by FlowJoTM10 software.
Anti-FOLR1 antibody binding to Hela and RPTEC/TERT1 cells was tested by FACS. The study was carried out as described above. […]

B1: F40: fully human anti-FOLR1 antibody (IgG1), VH SEQ ID NO:9, VL SEQ ID NO:10 (antibody, V domains shown)
VH: EVQLLESGGGVVQPGRSLRLSCAASGFTFSSYAMHWVRQAPGKGLEWVAVISYDGSNKYYADSVKGRFIISRDNSKNTVYLQMNSLRAEDTAVYYCARPTYVFTYTGSSFDYWGQGTQVTVSS
VL: DIQVTQSPSSLSASLGDTVSITCRASRGLTDSVAWYQQKPGQAPKLLIYAASTLQSGVPSRFGGSGSGSYFTLTITSLQPEDVATYYCQNYKSAPWTFGQGTKVEIK
modifications: Synthetic F40 VH amino acid sequence; Synthetic F40 VL amino acid sequence
- Hela cell binding (in words): weakly positive
